Switch fluorescence ratio data for 66 sequences are collected here from the supplement of paper PMC10126150.

± gives the standard deviation of the averaged measurements.

For the data set, the system named is ATP. Briefly: switch fluorescence ratio, 500 uM ATP over buffer (Cy3 cluster intensity, sum of 5 cycles each) (fold (ratio)); higher = stronger signal-on switching upon ATP binding; sequences stand for … in TCGTCGGCAGCGTCAGATGTGTATAAGAGACAGTTTTTTTTTTTTTTTTTTTTTTTTT…TC. The note with it: aptamer strand: ATP DNA aptamer (quencher-CACCTGGGGGAGTATTGCGGAGGAAGG + anchor), 100 nM annealed; ATP concentration: 500 uM. The procedure, abridged: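 For every switch-domain sequence, the fluorescence ratio is the mean of per-cluster values, each being summed target-cycle Cy3 intensity over summed buffer-cycle Cy3 intensity. Clusters outside 100-1000 RFU were excluded. On a modified Illumina MiSeq flow-cell, the Cy3-labelled switching-strand clusters were annealed to 100 nM quencher-labelled ATP aptamer, imaged in selection buffer and then after 15 min with 500 uM ATP at 22 °C. Five such cycles were run, with NaOH stripping and re-annealing between them.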
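Also: ATP exposure 15 min at 22 °C before imaging.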

Turning to GGGGACTTTG, the switch fluorescence ratio came to 1.09 ± 0.073.
The result for GAGGGTTGTT reads 0.997 ± 0.019.
On to TTTTCCTGAG, for which the switch fluorescence ratio came out at 1.04 ± 0.035.
The result for GACAGCGGGT reads 1.01 ± 0.015; that for ATTAGAAAAA, 0.904 ± 0.019.
Then GGCATTATAG, with 0.999 ± 0.0097.
On to TTTGTTTGCA, for which the switch fluorescence ratio came to 1.01 ± 0.054.
Consider GTTGTGATCT, for which the switch fluorescence ratio came out at 0.989 ± 0.015.
Then ACGTGGTATG, with 1.02 ± 0.015; and TGATGTAGAG, with 0.99 ± 0.029; and GATATGGGTA, with 1.02 ± 0.035.
Then TGGGTTTCTT, with 1.016 ± 0.0055; and ATTTCTTGG, with 0.958 ± 0.031; and TGGCGTGTCA, with 1.02 ± 0.051.
The result for GCGTGTGGGC reads 1.071 ± 0.0066; that for AGGGCCGTAT, 1.04 ± 0.056.
As for TATGTGAGTT, the switch fluorescence ratio was 1.001 ± 0.0099.
For GTTGGTCTAT, the switch fluorescence ratio was 0.9778 ± 0.0064.
In the case of TTTTTTCTGT, the switch fluorescence ratio stood at 1.01 ± 0.029.
Then GCATTGGGGG, with 0.995 ± 0.041; and ACTGATGACG, with 1.06 ± 0.078; and TGAACAAGGG, with 0.962 ± 0.015.
On to TCTATTATCA, for which the switch fluorescence ratio was determined as 1.04 ± 0.024.
Then CCATATCGTT, with 0.997 ± 0.01; and TTCGTAGAAA, with 1.05 ± 0.032.
Consider ACTGGCTGTT, for which the switch fluorescence ratio was determined as 1.03 ± 0.035.
Then GCGGCTGGGG, with 1.01 ± 0.057; and TGTTGAAGAT, with 1.005 ± 0.0076.
With TTTGGGCCGT, the switch fluorescence ratio was determined as 0.971 ± 0.043.
The result for TATCTGTTGT reads 0.967 ± 0.033.
The result for TGCGATGTAG reads 0.9889 ± 0.005.
The result for TGAGTAATAG reads 2.01 ± 0.87; that for GTCGAGAAGG, 0.991 ± 0.009; that for TAGGTTAGTG, 0.951 ± 0.01.
For the sequence GAATTTCGAT, the switch fluorescence ratio came to 0.976 ± 0.011.
Consider CAGGGCCTGT, for which the switch fluorescence ratio was 1.01 ± 0.028.
Then TGGATAAGTT, with 1.03 ± 0.025; and CCAGGGGTCC, with 2.93 ± 2.4; and GGTTTAGGCA, with 0.999 ± 0.027.
As to AGAGACAGCT, the switch fluorescence ratio is 0.994 ± 0.05.
The result for AGCGGCTAAT reads 0.981 ± 0.011; that for TTCTGGTAGG, 1 ± 0.025.
For the sequence CGTGGGCATT, the switch fluorescence ratio is 1.01 ± 0.034.
As to TTAATTCGTC, the switch fluorescence ratio was determined as 0.949 ± 0.021.
On to TTGCTGGCGG, for which the switch fluorescence ratio worked out at 1 ± 0.038.
Regarding GAACGGGTAC, the switch fluorescence ratio turned out to be 1.42 ± 0.17.
For the sequence AAAGAATTTC, the switch fluorescence ratio turned out to be 0.981 ± 0.038.
Take TGTTAAATGG: the switch fluorescence ratio was 0.962 ± 0.014.
Regarding TCGCGAAGGG, the switch fluorescence ratio turned out to be 1.01 ± 0.013.
As for GAAGAGGGGA, the switch fluorescence ratio is 1.01 ± 0.013.
Take TAGTGGTTT: the switch fluorescence ratio turned out to be 0.986 ± 0.024.
Consider TCTTTGGTCG, for which the switch fluorescence ratio turned out to be 1.02 ± 0.12.
GGGGCACTGT: the switch fluorescence ratio was determined as 1.01 ± 0.013.
The result for GTTGGTTTGT reads 0.986 ± 0.019; that for GCAATGGTAC, 2.21 ± 0.098.
The result for TCAGCTGGGG reads 0.9799 ± 0.0058; that for TGAGTAACGG, 1.02 ± 0.04.
The result for AAAGCCGTAG reads 1.003 ± 0.0082.
Regarding ATGTATTAGG, the switch fluorescence ratio was determined as 0.997 ± 0.025.
The result for TTGTGGTGGG reads 1.03 ± 0.069.
Then TTGTCCTGTG, with 1.02 ± 0.036; and GTGATGTTGT, with 0.977 ± 0.037.
Then GCAAAGGGCT, with 1 ± 0.035; and TAAACGGGGA, with 0.986 ± 0.057; and TCAGATAGGG, with 0.968 ± 0.017.
Take TTTCCGAGGA: the switch fluorescence ratio stood at 1.03 ± 0.069.
